Source: paper PMC3264566, “Structure-Function Studies of DNA Binding Domain of Response Regulator KdpE Reveals Equal Affinity Interactions at DNA Half-Sites”
Changes are numbered by the printed parent chain.

What was measured:
Details in all cases: protein: recombinant; tags: N-terminal His-tag removed with TEV; chain copies: 2; blunt
KdpE DBD (KdpEDBD) [1] = biological target: T1, KdpE DBD (KdpEDBD) (Escherichia coli str. K-12 substr. …, UniProt P21866 124-225); assay: AUC sedimentation equilibrium; first binding event, ABB model (macroscopic; upper limit); AUC: 50 mM HEPES pH 7.4, 150 mM KCl, 1 mM EDTA, 20 C, DNA 0.5 uM in SV; EMSA: 10 mM Tris pH 8.0, 50 mM NaCl, 5% glycerol, 0.1% Triton X-100, 10 mM DTT, 1 mM EDT
T1 sequence: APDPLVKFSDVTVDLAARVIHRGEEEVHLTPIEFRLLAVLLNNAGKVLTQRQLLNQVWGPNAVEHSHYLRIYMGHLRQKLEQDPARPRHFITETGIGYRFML

KdpE DBD (KdpEDBD) [2] = biological target: T1, KdpE DBD (KdpEDBD); assay: AUC sedimentation velocity (Sw isotherm); two-site model, Kd1; AUC: 50 mM HEPES pH 7.4, 150 mM KCl, 1 mM EDTA, 20 C, DNA 0.5 uM in SV; EMSA: 10 mM Tris pH 8.0, 50 mM NaCl, 5% glycerol, 0.1% Triton X-100, 10 mM DTT, 1 mM EDT
KdpE DBD (KdpEDBD) [3] = biological target: T1, KdpE DBD (KdpEDBD); assay: EMSA; minimal 21 bp; AUC: 50 mM HEPES pH 7.4, 150 mM KCl, 1 mM EDTA, 20 C, DNA 0.5 uM in SV; EMSA: 10 mM Tris pH 8.0, 50 mM NaCl, 5% glycerol, 0.1% Triton X-100, 10 mM DTT, 1 mM EDT
KdpE DBD (KdpEDBD) [4] = biological target: T1, KdpE DBD (KdpEDBD); assay: AUC sedimentation equilibrium; S2 half-site only, 1:1, AB model; AUC: 50 mM HEPES pH 7.4, 150 mM KCl, 1 mM EDTA, 20 C, DNA 0.5 uM in SV; EMSA: 10 mM Tris pH 8.0, 50 mM NaCl, 5% glycerol, 0.1% Triton X-100, 10 mM DTT, 1 mM EDT
KdpE DBD (KdpEDBD) [5] = biological target: T1, KdpE DBD (KdpEDBD); assay: AUC sedimentation equilibrium; S1 half-site only, 1:1, AB model; AUC: 50 mM HEPES pH 7.4, 150 mM KCl, 1 mM EDTA, 20 C, DNA 0.5 uM in SV; EMSA: 10 mM Tris pH 8.0, 50 mM NaCl, 5% glycerol, 0.1% Triton X-100, 10 mM DTT, 1 mM EDT

B1: kdpFABCBS 30 bp (dsDNA)
DNA 1: CATTTTTATACTTTTTTTACACCCCGCCCG
DNA 2: CGGGCGGGGTGTAAAAAAAGTATAAAAATG
For B1, the Kd (KdpE DBD (KdpEDBD) [1]) was 80 ± 25 nM and the Kd (KdpE DBD (KdpEDBD) [2]) was 90 nM.

B2: kdpFABCBS 5'del1,3'del8 (21 bp) (dsDNA)
DNA 1: ATTTTTATACTTTTTTTACAC
DNA 2: GTGTAAAAAAAGTATAAAAAT
B2: binds (KdpE DBD (KdpEDBD) [3]).

B3: kdpFABCBS-1 (dsDNA)
DNA 1: B1 DNA 1 with T5C, T6C
DNA 2: B1 DNA 2 with A25G, A26G
Binder B3 has a Kd (KdpE DBD (KdpEDBD) [4]) of 200 ± 100 nM.

B4: kdpFABCBS-7 (dsDNA)
DNA 1: B1 DNA 1 with T17C, T18C
DNA 2: B1 DNA 2 with A13G, A14G
In the case of B4, the Kd (KdpE DBD (KdpEDBD) [5]) is reported as 350 ± 100 nM.
